# Laboratory results taken from publication PMC3591310, “Characterization and Functional Analysis of Four Glutathione S-Transferases from the Migratory Locust, Locusta migratoria” (PLoS ONE, 2013).
# Where two headings read alike, the source gives them in different places.
# B1: LmGSTd1 (Locusta migratoria) (protein)
# chain: MPSVDLYYVPGSAPCRAVQMVAKAVGVDLNLKLVNLMEGEQMKPEYLKMNPQHTVPTIDDNGLYLWESRAIIGYLVEQYAKDDSLYPKEAKKRALVNQRMYFDIGTLYARFADYYYPVMFGGASYDPEKLKKLEEAYEFLNKFLEGSDWVAGNSITIADYTIMASVSTAEIIGFDIKKFPKVAAWFEKAKKEIPSYEETNHAGALEFKKLFDSMTAKK
# notes: E. coli JM109
# B2: LmGSTs5 (Locusta migratoria) (protein)
# chain: MAPKYKLTYFPIMGLAEPIRFLLSYGKIEFEDERCDQDKWPSVKESTPLGKVPVLEIDGKTTWQSVAICRYLAKQLGLAGANDWEDLQIDMAVDTISDLRMKVAAYAYETDEALKEKKKQSLLNETLPFMLPRLDKMVKENGGYFANGKLSWADLYFAAIPINFMMGFDITKDYSNLSALKNTVCEIPAIKEWISKRPKTER
# B3: LmGSTt1 (Locusta migratoria) (protein)
# chain: MSLKVYYDLLSQPSRAVVLFLLANDIPYEAREINVLHGEQFSEEFAKLNPMKKVPVIKDGDFTLTESVAILRYLCRERDVPDHWYPADSKKQARVDEYLEWQHTNTRSNCALYFLNKFMLPAIKGTQPNPETVARRERKMVATLNEVEEIWLRNKTYLAGDKISIADLLGACEIEQTRMAGYNPCDGRPKLAAWLERVRCDTLPHYDTVHALVRKVTEKYGGVPPASFSKL
# B4: LmGSTu1 (Locusta migratoria) (protein)
# chain: MAPPTLFNVTLSPPCRLVRLVAGIIGVDLKVVDVKDISKEMKTPEMLKKNPQHTVPTLEDNGVYLAESRAIAMYLISKYAKDDSLYPKDVNKRVLVDQRLFYDQDLYNKILNVFLPKFFGKQTDPSSIEKVNEGLETLNRMLDGKQWLAGDNVTLADYAVAISLSSLDFVPESGIDPKKQPNINQWLPRVENSHPKYGEHLKEFHEALKKLTQK
# Experiments:
# LmGSTu1 [1] = biological target: T1, LmGSTu1 (Locusta migratoria, UniProt F4YUI9); test: inhibition of CDNB-GSH conjugation, absorbance […] nm; type: biochemical; conditions: read-out: I50
# T1 construct: E. coli BL21 (DE3)
# T1 sequence (F4YUI9 1-214): B4 chain
# LmGSTt1 [2] = biological target: T2, LmGSTt1 (Locusta migratoria, UniProt F4YUJ7); test: as above; type: biochemical; conditions: read-out: I50
# T2 construct: E. coli BL21 (DE3)
# T2 sequence (F4YUJ7 1-231): B3 chain
# LmGSTd1 [3] = biological target: T3, LmGSTd1 (Locusta migratoria, UniProt E7BTM5); test: as above; type: biochemical; conditions: read-out: I50
# T3 construct: E. coli JM109
# T3 sequence (E7BTM5 1-218): B1 chain
# LmGSTs5 [4] = biological target: T4, LmGSTs5 (Locusta migratoria, UniProt F4YUJ4); test: as above; type: biochemical; conditions: read-out: I50
# T4 construct: E. coli JM109
# T4 sequence (F4YUJ4 1-202): B2 chain
# LmGSTs5 [5] = biological target: T4, LmGSTs5; test: GSH conjugation, absorbance […] nm, non-linear regression; type: biochemical; conditions: read-out: CDNB / Km; 5 mM GSH, pH 7.5, 28°C; apparent
# LmGSTu1 [6] = biological target: T1, LmGSTu1; test: as above; type: biochemical; conditions: read-out: CDNB / Km; 5 mM GSH, pH 7.5, 28°C; apparent
# LmGSTt1 [7] = biological target: T2, LmGSTt1; test: as above; type: biochemical; conditions: read-out: CDNB / Km; 5 mM GSH, pH 7.5, 28°C; apparent
# LmGSTd1 [8] = biological target: T3, LmGSTd1; test: as above; type: biochemical; conditions: read-out: CDNB / Km; 5 mM GSH, pH 7.5, 28°C; apparent
# purified protein [9] = substrate: O=[N+]([O-])c1ccc(CCl)cc1; test: purified protein; type: biochemical, Locusta migratoria; conditions: 5 mM GSH, pH 7.5, 28°C, apparent
# purified protein [10] = substrate: O=[N+]([O-])c1ccc(Cl)c(Cl)c1; test: purified protein; type: biochemical, Locusta migratoria; conditions: 5 mM GSH, pH 7.5, 28°C, apparent
# purified protein [11] = substrate: O=[N+]([O-])c1ccc(CCl)cc1; test: purified protein; conditions: 5 mM GSH, pH 7.5, 28°C, apparent
# purified protein [12] = substrate: O=[N+]([O-])c1ccc(Cl)c(Cl)c1; test: purified protein; conditions: 5 mM GSH, pH 7.5, 28°C, apparent
# [13] = 2 mM CDNB, 5 mM GSH, 0.1 M phosphate pH 7.5, 28°C
molecule,measurement,setting,value
reactive blue,IC50,LmGSTu1 [1]; [13],3.4 µM
same,IC50,LmGSTt1 [2]; [13],12.4 µM
same,IC50,LmGSTd1 [3]; [13],4.58 µM
same,IC50,LmGSTs5 [4]; [13],0.98 µM
"O=[N+]([O-])c1ccc(Cl)c([N+](=O)[O-])c1 [CDNB, 1-chloro-2,4-dinitrobenzene]",Km,LmGSTs5 [5],1170 ± 290 µM
same,Km,LmGSTu1 [6],250 ± 25 µM
same,Km,LmGSTt1 [7],4730 ± 350 µM
same,Km,LmGSTd1 [8],500 ± 25 µM
C=C(CC)C(=O)c1ccc(OCC(=O)O)c(Cl)c1Cl [ethacrynic acid],IC50,LmGSTu1 [1],3.27 µM
same,IC50,LmGSTt1 [2],4.7 µM
same,IC50,LmGSTd1 [3],2.2 µM
same,IC50,LmGSTs5 [4],33.8 µM
B1,Km,purified protein [9],6380 ± 570 µM
same,Vmax,purified protein [9],0.049 µmol/min/mg
same,Km,purified protein [10],1000 ± 87 µM
same,Vmax,purified protein [10],0.0004 µmol/min/mg
B2,Km,purified protein [11],470 ± 83 µM
same,Vmax,purified protein [11],0.156 µmol/min/mg
same,Km,purified protein [12],1730 ± 240 µM
same,Vmax,purified protein [12],0.00741 µmol/min/mg
B3,Km,purified protein [11],7850 ± 1080 µM
same,Vmax,purified protein [11],0.00143 µmol/min/mg
B4,Km,purified protein [11],1580 ± 170 µM
same,Vmax,purified protein [11],0.00677 µmol/min/mg
same,Km,purified protein [12],730 ± 64 µM
same,Vmax,purified protein [12],0.00098 µmol/min/mg
